Columns and labels:
[1] = test system: CD28 response element (RE/AP) reporter gene; assay: RE/AP luciferase reporter assay in MCC-specific T hybridoma cells; format: cell-based
Description: (FIG. 6A) OT-II CD4^+ T cells were infected with retrovirus expressing Myc-tagged V3 domain, V3 mutated at P330/1/4/6A (V3-4PA), or PR motif-deleted V3 (V3-ΔPR). Infected cells (green) were harvested, stimulated, and fixed. Conjugates were stained with anti-Myc plus a secondary Alexa 555-coupled antibody (orange), and anti-PKCθ plus a secondary Alexa 647-coupled antibody (red). Cells were analyzed as in FIG. 1A. (FIG. 6B) Quantitative analysis of the results shown in (FIG. 6A) from 30-50 T-APC conjugates. ** p<0.05. (FIG. 6C) MCC-specific T hybridoma cells were cotransfected with indicated vector, together with RE/AP-Luc and β-Gal reporter plasmids. Cells were stimulated and analyzed as in FIG. 1C. […] Cytokine-producing cells were analyzed by intracellular staining 8 h after restimulation. […] Normalized luciferase activity was determined in triplicates.
The CD28 response element (RE/AP)- or NFAT-luciferase (Luc) reporter genes have been described (Coudronniere, N. et al. Proc Natl Acad Sci USA 97, 3394-3399 (2000)). […] The cells were the lysed and Luc activity was quantitated and normalized to the activity of a cotransfected β-galactosidase (β-Gal) reporter gene.
To determine whether ectopic V3 expression also interfered with PKCθ-dependent TCR/CD28 signaling, the effects of V3 on activation of reporter genes and on T cell differentiation into effector Th cells were analyzed. […]

[2] = test system: Naïve CD4+ T cells from B6 mice, Treg (FoxP3+) cells; assay: In vitro Treg (FoxP3+) differentiation of retrovirally transduced CD4+ T cells; format: cell-based, mouse; details: Treg-polarizing conditions (IL-2+TGFβ), GFP+FoxP3+ cells
Description: Naïve CD4+ T cells from B6 mice stimulated with anti-CD3 plus anti-CD28 mAbs and differentiated in vitro under Treg-polarizing conditions (IL-2+TGFβ) were retrovirally transduced with empty pMIG vector, or with the indicated PKCθ V3 vectors. Transduced (GFP+) cells were sorted and FoxP3+ cells were analyzed by intracellular staining.
Naïve CD4^+ T cells from B6 mice stimulated with anti-CD3 plus anti-CD28 mAbs and differentiated in vitro under Treg-polarizing conditions (IL-2+TGFβ) were retrovirally transduced with empty pMIG vector, or with the indicated PKCθ V3 vectors. Transduced (GFP+) FoxP3+ cells were analyzed by intracellular staining 8 hours after restimulation. Right panels represent cumulative data showing percentage of GFP+FoxP3+ cells by intracellular staining.

[3] = test system: Naïve CD4+ T cells from B6 mice, Th9 cells; assay: In vitro Th9 differentiation of retrovirally transduced CD4+ T cells; format: cell-based, mouse; details: Th9-polarizing conditions (IL-4+TGFβ), IL-9-producing cells
Description: Naïve CD4^+ T cells from B6 mice stimulated with anti-CD3 plus anti-CD28 mAbs and differentiated in vitro under Th9-polarizing conditions (IL-4+TGFβ) were retrovirally transduced with empty pMIG vector, or with the indicated PKCθ V3 vectors. Transduced (GFP+) cells were sorted and IL-9-producing cells were analyzed by intracellular staining 8 h after restimulation. Cumulative data showing percentage of cytokine-producing. V3-4PA refers to mutation of 4 Pro residues in the Pro-rich motif to Ala and V3-DPR refers to deletion of the Pro-rich motif (ARPPCLPTP).
Th9 cells have been reported to play an important role in promoting allergic diseases such as asthma (J. Asthma 48:115, 2011; Curr. Opin. Immunol. 24:1, 2012. These findings indicate that allergic disease such as asthma can be treated in accordance with the invention.

[4] = test system: endogenous PKCθ; assay: IS localization in OT-II CD4+ T cells conjugated with Ova-loaded APCs (confocal); format: cell-based, mouse; details: OT-II TCR-Tg CD4+ T cells
Description: (FIG. 6A) OT-II CD4^+ T cells were infected with retrovirus expressing Myc-tagged V3 domain, V3 mutated at P330/1/4/6A (V3-4PA), or PR motif-deleted V3 (V3-ΔPR). Infected cells (green) were harvested, stimulated, and fixed. Conjugates were stained with anti-Myc plus a secondary Alexa 555-coupled antibody (orange), and anti-PKCθ plus a secondary Alexa 647-coupled antibody (red). Cells were analyzed as in FIG. 1A. (FIG. 6B) Quantitative analysis of the results shown in (FIG. 6A) from 30-50 T-APC conjugates. ** p<0.05. (FIG. 6C) MCC-specific T hybridoma cells were cotransfected with indicated vector, together with RE/AP-Luc and β-Gal reporter plasmids. Cells were stimulated and analyzed as in FIG. 1C. (FIG. 6D) Naïve CD4^+ T cells from B6 mice stimulated with anti-CD3 plus anti-CD28 mAbs and differentiated in vitro under Th1-, Th2- or Th17-polarizing conditions were retrovirally transduced with empty pMIG vector, or with the indicated PKCθ V3 vectors. Cytokine-producing cells were analyzed by intracellular staining 8 h after restimulation. Right panels represent cumulative data showing percentage of cytokine-producing cells by intracellular staining. (FIG. 6E) MCC-specific T hybridoma cells were cotransfected with the indicated plasmids, together with NFAT luciferase reporter and a β-Gal reporter plasmid. Cells were incubated with fibroblasts that express I-E^K and B7-1 in the absence or presence of MCC peptide for 6 hrs. Normalized luciferase activity was determined in triplicates.
Full-length human PKCθ and its derivatives were cloned as a GFP fusion protein in the pMX retroviral vector. Retroviral supernatants were used to infect preactivated CD4^+ T cells from PKCθ^−/− or WT OT-II mice. Transduced cells were rested for an additional three days. On the day of experiment, APC were prepared from WT B6 splenocytes that were depleted of CD4^+ T cells using anti-CD4 (L3T4) mAb-coated beads. T-depleted APC were stained with 20 μM of cell tracker blue (CMAC) and then pulsed with 5 μM Ova peptide, respectively, for 30 min at 37° C. T cell-APC conjugation was carried out at 37° C. for 20 min before fixation with 4% paraformaldehyde and permeabilization with PBS supplemented with 1% BSA and 0.1% Triton X-100. […] Immunofluorescene images were captured using a Marianas digital fluorescence-microscopy system (Intelligent Imaging Innovations) as described (Becart, S. et al. Immunity 29, 704-719 (2008)).
Given the critical role of the PKCθ V3 domain in the enzyme's CD28 association, IS localization, and activation of downstream targets, ectopic expression of the isolated V3 domain was analyzed for interference with the localization and function of PKCθ in stimulated T cells. […]

B1: V3 domain: amino acid 282-379 of human PKCθ with N-terminal Myc tag, expressed from pMIG retroviral vector (protein)
chain: GINQKLMAEALAMIESTQQARCLRDTEQIFREGPVEIGLPCSIKNEARPPCLPTPGKREPQGISWESPLDEVDKMCHLPEPELNKERPSLQIKLKIED
modifications: left off: small tags and cut ends
notes: amino acid 282-379 of human PKCθ with N-terminal Myc tag, expressed from pMIG retroviral vector
- inhibition of RE/AP reporter gene activity stimulated by WT PKCθ ([1]; coexpressed at increasing levels together with WT PKCθ): inhibited in a dose-dependent manner
- activation of RE/AP reporter gene ([1]; expression of the V3 alone): did not activate
- promotion of Treg differentiation [2]: ~4 fold
- effect on differentiation of Th9 cells [3]: interferes
- effect on IS localization of endogenous PKCθ [4]: sequestered from the IS
- subcellular localization of the transduced V3 protein [4]: translocated to and selectively localized in the IS

— patent publication US20180335433A1, “COMPOSITIONS TARGETING PKC-THETA AND USES AND METHODS OF TREATING PKC-THETA PATHOLOGIES, ADVERSE IMMUNE RESPONSES AND DISEASES” (La Jolla Institute for Allergy and Immunology, priority 2011, published 2018)
